B1: CAK complex-CDK7/CyclinH/MAT1 enzyme (recombinant, BPS Bioscience) (protein)
chain 1: ALDVKSRAKRYEKLDFLGEGQFATVYKARDKNTNQIVAIKKIKLGHRSEAKDGINRTALREIKLLQELSHPNIIGLLDAFGHKSNISLVFDFMETDLEVIIKDNSLVLTPSHIKAYMLMTLQGLEYLHQHWILHRDLKPNNLLLDENGVLKLADFGLAKSFGSPNRAYTHQVVTRWYRAPELLFGARMYGVGVDMWAVGCILAELLLRVPFLPGDSDLDQLTRIFETLGTPTEEQWPDMCSLPDYVTFKSFPGIPLHHIFSAAGDDLLDLIQGLFLFNPCARITATQALKMKYFSNRPGPTPGCQLPRPNCPVETLKEQSNPALAIKRKRTEALEQGGLPKKLIF
chain 2: YHNSSQKRHWTFSSEEQLARLRADANRKFRCKAVANGKVLPNDPVFLEPHEEMTLCKYYEKRLLEFCSVFKPAMPRSVVGTACMYFKRFYLNNSVMEYHPRIIMLTCAFLACKVDEFNVSSPQFVGNLRESPLGQEKALEQILEYELLLIQQLNFHLIVHNPYRPFEGFLIDLKTRYPILENPEILRKTADDFLNRIALTDAYLLYTPSQIALTAILSSASRAGITMESYLSESLMLKENRTCLSQLLDIMKSMRNLVKKYEPPRSEEVAVLKQKLERCHSAELALNVITKKRKGYEDDDYVSKKSKHEEEEWTDDDLVESL
chain 3: DDQGCPRCKTTKYRNPSLKLMVNVCGHTLCESCVDLLFVRGAGNCPECGTPLRKSNFRVQLFEDPTVDKEVEIRKKVLKIYNKREEDFPSLREYNDFLEEVEEIVFNLTNNVDLDNTKKKMEIYQKENKDVIQKNKLKLTREQEELEEALEVERQENEQRRLFIQKEEQLQQILKRKNKQAFLDELESSDLPVALLLAQHKDRSTQLEMQLEKPKPVKPVTFSTGIKMGQHISLAPIHKLEEALYEYQPLQIETYGPHVPELEMLGRLGYLNHVRAASPQDLAGGYTSSLACHRALQDAFSGLFWQPS
B2: CDK7 (endogenous) (enzyme, human, UniProt P50613 2-346, looked up)
chain: B1 chain 1
notes: Detected or immunoprecipitated with anti-CDK7 (Cell Signaling 2916s); also called cyclin-dependent-kinase 7

How the values were obtained:
[1] = target: T1, mutant MED1-peptide SPAYAPQNLD
T1 chain: SPAYAPQNLD

[2] = target: T2, Human Recombinant GST-MED1 protein (aa1391-1490), Q15648
T2 chain: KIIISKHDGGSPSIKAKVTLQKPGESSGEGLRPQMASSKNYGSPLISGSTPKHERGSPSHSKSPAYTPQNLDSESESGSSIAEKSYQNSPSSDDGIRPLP

[3] = target: T3, wild type MED1-peptide SPAYTPQNLD
T3 chain: SPAYTPQNLD

[4] = target: T4, MED1 (endogenous, phosphorylated upon DHT stimulation) (Homo sapiens, UniProt Q15648 1-1581, phosphothreonine at T1457 and T1032 (DHT-induced)); experiment: reciprocal co-immunoprecipitation from LNCaP and VCaP nuclear lysates with MED1 and CDK7 antibodies (FIGS. 5c, 5d)
T4 construct: Endogenous protein immunoprecipitated with an anti-MED1 antibody (Bethyl A300-793A) from nuclear extracts; also called p-MED1; TRAP220
T4 sequence (Q15648 whole entry): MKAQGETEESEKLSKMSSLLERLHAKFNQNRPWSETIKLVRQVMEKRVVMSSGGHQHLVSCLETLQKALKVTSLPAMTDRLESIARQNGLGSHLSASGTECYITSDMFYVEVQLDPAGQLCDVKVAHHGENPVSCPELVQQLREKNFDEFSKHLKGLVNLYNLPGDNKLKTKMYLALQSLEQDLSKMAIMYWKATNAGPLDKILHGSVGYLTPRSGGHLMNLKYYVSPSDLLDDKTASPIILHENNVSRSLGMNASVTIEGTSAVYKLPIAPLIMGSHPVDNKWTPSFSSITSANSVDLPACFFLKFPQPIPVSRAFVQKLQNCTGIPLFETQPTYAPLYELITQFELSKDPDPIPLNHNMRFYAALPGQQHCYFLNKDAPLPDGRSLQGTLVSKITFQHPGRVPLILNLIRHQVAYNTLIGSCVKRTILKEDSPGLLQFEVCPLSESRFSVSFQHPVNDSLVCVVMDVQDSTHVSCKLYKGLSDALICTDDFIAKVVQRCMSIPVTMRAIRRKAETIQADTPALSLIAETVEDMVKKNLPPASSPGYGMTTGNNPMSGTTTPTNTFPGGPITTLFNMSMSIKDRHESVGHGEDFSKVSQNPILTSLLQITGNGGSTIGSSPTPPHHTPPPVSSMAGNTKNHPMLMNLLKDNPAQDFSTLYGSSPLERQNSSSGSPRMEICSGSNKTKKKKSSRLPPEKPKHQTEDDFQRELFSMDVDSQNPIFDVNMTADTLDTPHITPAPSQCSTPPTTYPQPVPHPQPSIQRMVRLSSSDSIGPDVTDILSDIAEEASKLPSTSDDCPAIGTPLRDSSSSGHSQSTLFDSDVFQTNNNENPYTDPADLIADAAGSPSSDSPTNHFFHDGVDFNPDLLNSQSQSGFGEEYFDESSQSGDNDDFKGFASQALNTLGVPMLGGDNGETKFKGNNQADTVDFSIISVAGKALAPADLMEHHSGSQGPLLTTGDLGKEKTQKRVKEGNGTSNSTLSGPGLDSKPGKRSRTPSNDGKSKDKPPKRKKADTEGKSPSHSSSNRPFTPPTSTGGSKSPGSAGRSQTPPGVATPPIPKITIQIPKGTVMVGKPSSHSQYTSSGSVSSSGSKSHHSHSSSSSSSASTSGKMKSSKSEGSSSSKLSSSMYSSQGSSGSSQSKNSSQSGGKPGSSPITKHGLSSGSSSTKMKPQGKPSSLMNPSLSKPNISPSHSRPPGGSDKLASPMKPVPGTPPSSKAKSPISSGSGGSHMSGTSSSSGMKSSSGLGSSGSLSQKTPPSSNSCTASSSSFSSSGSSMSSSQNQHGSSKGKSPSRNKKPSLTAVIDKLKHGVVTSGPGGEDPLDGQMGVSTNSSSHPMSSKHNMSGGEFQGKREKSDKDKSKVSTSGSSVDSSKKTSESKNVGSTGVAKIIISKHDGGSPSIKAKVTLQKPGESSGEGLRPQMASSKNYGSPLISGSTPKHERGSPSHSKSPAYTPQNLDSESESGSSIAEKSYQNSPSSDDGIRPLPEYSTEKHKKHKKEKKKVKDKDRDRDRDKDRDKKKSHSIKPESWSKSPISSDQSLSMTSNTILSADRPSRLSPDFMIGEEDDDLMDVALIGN

Row | Binder | luminescence based kinase assay (ADP-Glo) [1] | in vitro kinase assay, immunoblot of the reaction mixtures [2] | luminescence based kinase assay (ADP-Glo) [3] | binding result [4]
1 | B1 | CDK7 exhibited no activity towards the T1457A mutant peptide | we observed Threonine phosphorylation, specifically at T1457, which was completely inhibited by THZ1 | CDK7-mediated phosphorylation of the T1457 wildtype peptide was inhibited by THZ1 treatment in a dose-dependent manner | –
2 | B2 | – | – | – | binds
